{"source": "patent US20180282403A1", "about": "“AGENTS FOR REDUCING THE ACTIVITY OF GDF15” (GENAGON THERAPEUTICS AB, priority 2015, published 2018)", "biological_target": "T1, GDF15 (Homo sapiens, UniProt Q99988)", "T1 construct": "purchased Abcam", "T1 sequence (Q99988 197-308 limits assumed)": "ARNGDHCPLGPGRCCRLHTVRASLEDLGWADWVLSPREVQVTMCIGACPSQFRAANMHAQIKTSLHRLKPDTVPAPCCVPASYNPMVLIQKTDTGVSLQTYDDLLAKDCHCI", "experiment": "Pepstar peptide array: GDF15 binding to 15-mers of extracellular loop2 (ECD3) of QRFPR", "settings": "amino acid walk and alanine scan of 15-mers; FIG. 12", "excerpt": "In order to determine the key amino acids and a minimal epitope present in the third extracellular domain of QRFPR (extracellular loop 2) we designed a Pepstar peptide array, purchased from JPT peptides. In short the array included complete coverage of the extracellular loop2 of QRFPR, divided into 15-mers. Peptides of this length (15-mers) were selected based on recommended length by the manufacturer, based on factors such as efficiency of synthesis, purity and yield by FMOC chemistry. The 15-mers were either varied according to amino acid walk, single or double alanine scan. Each set was analysed in triplicates. GDF15 was diluted into PBS-T (0.05% Tween-20) and incubated under mild agitation on an orbital shaker overnight at +4 C. Washes was done under agitation on a Sky line orbital shaker DOS-10L, ELMI.\nPrimary antibodies against GDF15 were added to wells with prior GDF15 incubation and to adjacent control wells where GDF15 had been omitted (only PBS-T) and incubated for 1 hr RT under agitation on orbital shaker. After repeated washes fluorophore-conjugated secondary antibodies were added, and after final washes the array was analysed on a G2502 Microarray scanner, Agilent Technologies. Fluorescence values from technical controls and control wells (no GDF15) were subtracted and resulting values in triplicate was analysed in Excel and Prism.", "data": [{"sequence": "FLYEKEHIC (listed as Homo sapiens) [SEQ ID NO:11]", "values": [{"measurement": "GDF15 binding to immobilised QRFPR ECD3 peptides", "result": "essential for GDF15 binding"}]}]}
